Results as given in patent publication US20160251440A1 (Ablynx, published 2016).

T1: human IL12Rβ2, cell-expressed (human, UniProt Q99665 24-862)
T1 sequence (looked up): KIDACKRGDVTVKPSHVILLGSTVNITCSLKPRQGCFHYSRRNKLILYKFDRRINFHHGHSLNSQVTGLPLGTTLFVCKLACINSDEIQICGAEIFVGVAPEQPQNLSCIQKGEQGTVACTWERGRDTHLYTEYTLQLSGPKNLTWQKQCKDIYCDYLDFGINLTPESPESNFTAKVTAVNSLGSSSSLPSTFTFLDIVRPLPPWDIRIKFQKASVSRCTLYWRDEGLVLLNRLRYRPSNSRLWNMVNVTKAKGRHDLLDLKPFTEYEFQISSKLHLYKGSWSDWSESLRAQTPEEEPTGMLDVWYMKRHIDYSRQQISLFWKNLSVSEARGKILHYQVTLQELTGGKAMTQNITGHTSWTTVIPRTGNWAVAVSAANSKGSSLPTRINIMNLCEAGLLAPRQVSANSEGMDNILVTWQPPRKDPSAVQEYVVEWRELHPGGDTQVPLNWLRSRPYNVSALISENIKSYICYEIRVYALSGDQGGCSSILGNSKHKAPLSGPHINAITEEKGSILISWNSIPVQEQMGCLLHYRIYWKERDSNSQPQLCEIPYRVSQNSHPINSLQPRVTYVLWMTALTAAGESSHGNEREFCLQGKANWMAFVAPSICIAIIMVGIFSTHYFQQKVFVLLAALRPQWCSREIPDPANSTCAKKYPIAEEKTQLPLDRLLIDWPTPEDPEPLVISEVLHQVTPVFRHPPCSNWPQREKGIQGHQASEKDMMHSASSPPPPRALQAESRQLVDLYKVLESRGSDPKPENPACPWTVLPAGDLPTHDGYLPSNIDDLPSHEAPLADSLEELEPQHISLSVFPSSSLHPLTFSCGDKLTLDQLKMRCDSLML

T2: human IL12Rβ2 extracellular domain Fc-fusion (human, UniProt Q99665 24-622)
T2 construct: extracellular domain; bought; also called IL12Rβ2-Fc; hIL-12Rβ2-Fc
T2 sequence (looked up): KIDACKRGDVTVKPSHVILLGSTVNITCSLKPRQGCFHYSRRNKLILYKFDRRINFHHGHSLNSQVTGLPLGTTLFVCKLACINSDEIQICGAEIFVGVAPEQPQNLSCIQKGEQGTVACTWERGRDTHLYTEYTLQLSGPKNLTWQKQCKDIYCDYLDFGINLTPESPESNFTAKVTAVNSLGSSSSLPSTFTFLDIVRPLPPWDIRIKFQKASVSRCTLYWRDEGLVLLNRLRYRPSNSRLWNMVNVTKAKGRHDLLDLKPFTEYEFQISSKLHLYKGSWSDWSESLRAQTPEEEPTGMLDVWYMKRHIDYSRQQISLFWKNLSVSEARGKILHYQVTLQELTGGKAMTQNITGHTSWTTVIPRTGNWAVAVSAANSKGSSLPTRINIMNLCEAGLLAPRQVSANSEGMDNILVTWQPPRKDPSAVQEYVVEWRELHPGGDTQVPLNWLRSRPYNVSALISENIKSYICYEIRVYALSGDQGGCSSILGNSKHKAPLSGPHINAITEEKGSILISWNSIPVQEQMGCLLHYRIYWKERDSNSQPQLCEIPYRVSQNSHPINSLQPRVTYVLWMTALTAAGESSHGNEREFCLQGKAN

T3: human IL-23R extracellular domain Fc-fusion (human, UniProt Q5VWK5 24-355)
T3 construct: extracellular domain; bought; also called IL-23R-Fc
T3 sequence (looked up): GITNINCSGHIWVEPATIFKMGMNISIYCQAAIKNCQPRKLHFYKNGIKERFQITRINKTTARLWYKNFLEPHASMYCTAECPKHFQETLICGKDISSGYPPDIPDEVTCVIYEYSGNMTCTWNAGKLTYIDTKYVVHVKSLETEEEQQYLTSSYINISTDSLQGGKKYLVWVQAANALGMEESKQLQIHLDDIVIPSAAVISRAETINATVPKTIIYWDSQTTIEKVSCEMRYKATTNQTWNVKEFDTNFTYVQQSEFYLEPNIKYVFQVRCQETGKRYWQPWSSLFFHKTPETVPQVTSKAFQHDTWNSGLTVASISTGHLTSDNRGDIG


Columns and labels:
[1] = target: T4, human IL12Rβ1, cell-expressed (human, UniProt P42701 24-662); assay: cell-based or functional assay
[2] = target: T4, human IL12Rβ1, cell-expressed; assay: cell-based or functional assay; remark: listed apart in the source
[3] = target: T5, human IL12Rβ1 extracellular domain Fc-fusion (human, UniProt P42701 24-545); assay: SPR Biacore T100, captured IL12Rβ1-Fc
T5 construct: extracellular domain; bought; also called IL12Rβ1-Fc; hIL-12Rβ1-Fc; not shown: Fc part, captured by anti-hIgG

[4] = target: T5, human IL12Rβ1 extracellular domain …; assay: competition ELISA, coated IL-12 + IL12Rβ1-Fc
[5] = target: T5, human IL12Rβ1 extracellular domain …; assay: competition ELISA, coated IL-23 + IL12Rβ1-Fc
[6] = target: T5, human IL12Rβ1 extracellular domain …; assay: competition ELISA, coated IL-12 + 2 nM IL12Rβ1-Fc
[7] = target: T5, human IL12Rβ1 extracellular domain …; assay: competition ELISA, coated IL-23 + 2 nM IL12Rβ1-Fc
[8] = target: T6, human CD4, cell-expressed (human, UniProt P01730 26-458); assay: flow cytometry on MOLM-13 cells (CD4, no IL12R or IL23R), lower left panel
T6 construct: whole, on cells

[9] = target: T1, human IL12Rβ2, cell-expressed; assay: cell-based or functional assay
[10] = target: T1, human IL12Rβ2, cell-expressed; assay: FACS, activated human T cells
[11] = target: T2, human IL12Rβ2 extracellular domain …; assay: SPR Biacore T100, captured IL12Rβ2-Fc
[12] = target: T2, human IL12Rβ2 extracellular domain …; assay: competition ELISA, coated IL-12 + IL12Rβ2-Fc
[13] = target: T2, human IL12Rβ2 extracellular domain …; assay: competition ELISA, coated IL-12 + 3 nM IL12Rβ2-Fc
[14] = target: T6, human CD4, cell-expressed; assay: flow cytometry on MOLM-13 cells (CD4, no IL12R or IL23R), upper left panel
[15] = target: T4, human IL12Rβ1, cell-expressed; assay: flow cytometry on isolated CD8+ T cells of donor D863, anti-Flag detection
[16] = target: T2, human IL12Rβ2 extracellular domain …; assay: competition ELISA, ratio to monovalent IL12Rb2#1
[17] = target: T6, human CD4, cell-expressed; assay: flow cytometry on activated T cells of donor D838 (very high CD4, moderate IL12R), upper left panel
[18] = target: T3, human IL-23R extracellular domain …; assay: SPR Biacore T100, captured IL-23R-Fc
[19] = target: T3, human IL-23R extracellular domain …; assay: competition ELISA, coated IL-23 + IL-23R-Fc
[20] = target: T3, human IL-23R extracellular domain …; assay: competition ELISA, coated IL-23 + 5 nM IL-23R-Fc
[21] = target: T6, human CD4, cell-expressed; assay: flow cytometry on MOLM-13 cells (CD4, no IL12R or IL23R), upper right panel

Row | IC50, IFNγ release, PBMC D840 [9] | IC50, IFNγ release, T cells D839 [9] | EC50 [10] | Kd [11] | koff [11] | kon [11] | IC50 [12] | IC50 [13] | binding result [14] | binding result [15] | fold ctrl, IFNγ release, PBMC D840 [9] | fold ctrl, IFNγ release, T cells D839 [9] | fold ctrl [16] | EC50 (read off the curve) [14] | EC50 (read off the curve) [17] | Binder | further results
1 | – | – | – | – | – | – | – | – | – | – | – | – | – | – | – | IL12Rb1#31: 148F09 (VHH, also called IL12Rβ1#31; LG148F09) VHH: EVQLVESGGGLVQTGGSLRLSCAASGRTPSIIAMGWFRQTPGKEREFVGEIILSKGFTYYADSVKGRFTISRANAKNTITMYLQMNSLKSEDTAVYYCAARQNWSGNPTRTNEYEYWGQGTLVTVSS | IC50, IFNγ release, PBMC D840 [1]: 93.5 nM; IC50, IL-17 release, PBMC D840 [2]: 210 nM; Kd [3]: 23 nM; koff [3]: 0.017 s⁻¹; kon [3]: 720000 M⁻¹ s⁻¹; IC50 [4]: 22 nM; IC50 [5]: 10 nM; IC50 [6]: 22 nM; IC50 [7]: 10 nM; binding result [8]: no binding (tested: 1E-6 M)
2 | 13.5 nM | 51 nM | 1.5 nM | 2.7 nM | 0.00057 s⁻¹ | 210000 M⁻¹ s⁻¹ | 4.2 nM | 4.2 nM | no binding (tested: 1E-6 M) | no binding (tested: 250 nM) | – | – | – | – | – | IL12Rb2#1: 135B08 (VHH, also called IL12Rβ2#1; LG135B08) VHH: EVQLVESGGRLVQAGDSLRLSCAASGRTFISYRMGWFRQAPGKEREFVAALRWSSSNIDYTYYADSVKGRFSISGDYAKNTVYLQMNSLKAEDTAVYYCAASTRWGVMESDTEYTSWGQGTLVTVSS | –
3 | 40 nM | 67 nM | 1.8 nM | 6.9 nM | 0.0018 s⁻¹ | 270000 M⁻¹ s⁻¹ | 15 nM | 15 nM | no binding (tested: 1E-6 M) | – | – | – | – | – | – | IL12Rb2#2: 135A07 (VHH, also called IL12Rβ2#2; LG135A07) VHH: EVQLVESGGRLVQAGDSLRLSCAASGRTFTSYRMGWFRQAPGKEREFVSALRWSSGNIDYTYYADSVKGRFSISGDYAKNTVYLQMNSLKAEDTAVYYCAASTRWGVMESDTEYTSWGQGTLVTVSS | –
4 | 1.1 nM | 0.11 nM | – | – | – | – | 4.8 nM | – | – | no binding (tested: 250 nM) | 11 fold | 400 fold | 0.9 fold | ~1 nM | ~1 nM | IL12Rb2#1-35GS-CD4#8 (bispecific antibody, defined by its make-up (Nb1-Nb2)) EVQLVESGGRLVQAGDSLRLSCAASGRTFISYRMGWFRQAPGKEREFVAALRWSSSNIDYTYYADSVKGRFSISGDYAKNTVYLQMNSLKAEDTAVYYCAASTRWGVMESDTEYTSWGQGTLVTVSSGGGGSGGGGSGGGGSGGGGSGGGGSGGGGSGGGGSEVQLVESGGGSVQPGGSLTLSCGTSGRTFNVMGWFRQAPGKEREFVAAVRWSSTGIYYTQYADSVKSRFTISRDNAKNTVYLEMNSLKPEDTAVYYCAADTYNSNPARWDGYDFRGQGTLVTVSS | –
5 | 1.9 nM | 0.78 nM | – | – | – | – | 10 nM | – | – | – | 8 fold | 74 fold | 0.4 fold | ~1 nM | ~1 nM | CD4#8-35GS-IL12Rb2#1 (bispecific antibody, defined by its make-up) EVQLVESGGGSVQPGGSLTLSCGTSGRTFNVMGWFRQAPGKEREFVAAVRWSSTGIYYTQYADSVKSRFTISRDNAKNTVYLEMNSLKPEDTAVYYCAADTYNSNPARWDGYDFRGQGTLVTVSSGGGGSGGGGSGGGGSGGGGSGGGGSGGGGSGGGGSEVQLVESGGRLVQAGDSLRLSCAASGRTFISYRMGWFRQAPGKEREFVAALRWSSSNIDYTYYADSVKGRFSISGDYAKNTVYLQMNSLKAEDTAVYYCAASTRWGVMESDTEYTSWGQGTLVTVSS | –
6 | – | – | – | – | – | – | – | – | – | – | – | – | – | – | – | IL23R#20: 150H07 (VHH, bispecifics print NAKNTVY where this entry prints NAKNIVY; also called LG150H07) VHH: EVQLVESGGGLVQAGGSLRLSCAASGRTFSSYAMGWFRQAPGKDREFVAAISWIGESTYYADSVKGRFTISRDNAKNTVYLRMNSLKPEDTAVYYCAADLYYTAYVAAADEYDYWGQGTLVTVSS | Kd [18]: 78 nM; koff [18]: 0.23 s⁻¹; kon [18]: 3e+06 M⁻¹ s⁻¹; IC50 [19]: 16 nM; IC50 [20]: 16 nM; binding result [21]: no binding (tested: 1E-6 M)
